Results: PMC4734687, “Peptide-Based Optical uPAR Imaging for Surgery: In Vivo Testing of ICG-Glu-Glu-AE105” (PLoS ONE, 2016)
pIC50: −log10 of the molar value.

How the values were obtained:
[1] = biological target: T1, human uPAR in U87MG tumor tissue sections (Homo sapiens, UniProt Q03405); assay: Ex vivo fluorescent imaging and uPAR immunohistochemistry of tumor sections; details: 4 μm paraffin tumor sections, Odyssey scanner 800 nm, antibody R2 against uPAR
T1 construct: Ex Vivo histology and fluorescence images of s.c. U87MG tumor tissue sections; from tissue; host or cells: s.c. U87MG human glioblastoma xenograft tumors grown in mice
T1 sequence (Q03405 23-335): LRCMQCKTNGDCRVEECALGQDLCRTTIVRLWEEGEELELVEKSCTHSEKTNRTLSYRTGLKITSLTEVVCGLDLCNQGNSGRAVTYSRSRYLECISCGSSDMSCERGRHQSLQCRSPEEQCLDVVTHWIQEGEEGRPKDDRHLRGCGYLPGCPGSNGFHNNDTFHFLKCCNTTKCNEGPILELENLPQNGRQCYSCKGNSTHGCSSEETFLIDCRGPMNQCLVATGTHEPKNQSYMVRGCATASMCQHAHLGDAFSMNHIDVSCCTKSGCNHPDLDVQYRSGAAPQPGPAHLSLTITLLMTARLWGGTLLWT
Method: Tissue was formalin fixed in 4% formaldehyde in 24 h and then embedded in paraffin. For all stainings a 4 μm slice tissue were used. Before any staining the sliced tissue were imaged with an Odyssey scanner (LI-COR Biosciences, Lincoln, Nebraska) at 800 nm.
The tissue was incubated for one hour at 60° before being deparaffinized. Thereafter, tissue was pre-treated with proteinase K (Dako, Glostrup, Denmark) for 6 min. The staining was performed with the Dako ARK kit, with the antibody R2 [24] against uPAR.

[2] = Plasma stability of ICG-Glu-Glu-AE105 by HPLC; type: in vitro ADME; details: mouse plasma 150 μl, 5 μg in DMSO, 37°C, acetonitrile precipitation, HPLC absorbance area at 780 nm
Method: ICG-AE105 (5 μg in DMSO) was added to 150 μl mouse plasma and the solution was incubated at 37°C for either 0, 1, 5 or 30 minutes. After incubation, acetonitrile (200 μl) was added followed by centrifugation at 3500 rpm for 4 minutes. The supernatant was collected, diluted and passed through a 0.45 μm filter. The filtered solution was analyzed on a Dionex UltiMate 300 HPLC using an Onyx Monolithic column (Phenomenex, 50x4.6 mm) and with a flow of 1.5 ml/min. The HPLC mobile phase was 0.1% TFA in H2O:MeCN 90:10 (A) and 0.1% TFA in H2O:MeCN 10:90 (B) and the gradient program: 0–2 min 10% B, 2–20 min 10–100% B, 20–21 100% B, 21–23 min 100–10%B, 23–30 min 10% B.
Each plasma sample was analyzed by HPLC and the absorbance area at 780 nm was calculated. This value was compared to the standard sample and the plasma sample at 0 min to calculated the percentage of intact ICG-AE105 recovered in the supernatant (see Table 1).

[3] = In vitro comparison of fluorescence intensity of ICG and conjugated probe; type: physicochemical
Method: The UV-vis absorption spectra were recorded on a Perkin-Elmer Lambda 1050 UV/vis/NIR spectrometer double beam spectrometer using the HBC solvent as baseline. The spectra were recorded in 1 cm path length cuvettes with ICG and ICG-AE105 present in the 10–50 μM range. Excitation and emission spectra and lifetimes were measured using FluoroTime 300 (PicoQuant, Berlin, Germany) system. The spectra were measured through excitation at 725 nm using a Xe-lamp excitation source. The excitation and emission measurements were measured in 1 cm cuvettes at 90° with respect to the excitation light. In the fluorescence measurements the absorbance of the samples were below 0.1 at the maximum of the lowest energy absorption band to avoid inner filter effects. After each fluorescence measurement the absorption spectra were recorded in order to verify that no photobleaching of the sample had occurred during the fluorescence measurement. All excitation and fluorescence spectra were corrected for the wavelength-dependent sensitivity of the detection from 500–900 nm.

nude NMRI mice = assay: Observation of adverse effects in imaged mice; type: in vivo, mouse; details: 10 nmol i.v., nude NMRI mice with U87MG xenografts, n = 5 per group
Method: (§1) 10 nmol of ICG-Glu-Glu-AE105 or ICG were administered to 5 mice each via tail vein injections. 15 h post injection the mice were anaesthetized with 2% isoflurane a full-body optical scan recorded using the acquisition mode outlined above.

[4] = test system: U87MG human glioblastoma xenograft tumors; assay: Optical imaging of U87MG xenograft mice 15 h post injection (tumour to background ratio); type: in vivo, mouse; details: IVIS Lumina XR, 15 h post i.v. injection of 10 nmol; for Uptake in the tumor (in words): U87MG xenograft mice, n = 5
Method: All animal experiments were performed under a protocol approved by the Animal Research Committee of the Danish Ministry of Justice (2012-15-2934-00064). 5 ×10^6 U87MG cells were suspended in 200 ul PBS and inoculated in both flanks of 6 weeks old nude NMRI female mice (24–28 g; Taconic Europe, Lille Skensved, Denmark). All mice were housed in groups with 12 h light/dark cycle and food and water was available ad libitum. When the tumours reached approx. 500 mm^3 in size the mice were enrolled in the optical imaging protocol.
as §1
After imaging with IVIS Lumina XR the anesthetized mice were moved to a surgical table and real-time tumor imaging with a Fluobeam®800 NIR-camera was performed (Fluoptics, Grenoble, France). The camera was connected to a standard laptop to allow imaging, adjustments of camera functions and recording of images and video sequences. Fluobeam®800 works with a 800 nm excitation laser optimised for ICG imaging.
The TBR values were calculated as tumor-signal divided by background-signal by drawing a ROI over each tumor and place the background ROI in an area with constant background signal. Images from IVIS Lumina XR were processed in the software Living Image, while the images from Fluobeam®800 was processed in ImageJ.

uPAR = uPAR (Homo sapiens, UniProt Q03405); assay: Surface plasmon resonance solution competition of the uPA•uPAR interaction (Biacore3000); details: indirect solution competition for uPA binding, purified uPAR, non-linear regression, read-out: IC50 as competitive inhibitor of the uPA•uPAR interaction
Method: The IC50-value for ICG-Glu-GLU-AE105 as competitive inhibitor of the uPA•uPAR interaction was measured by surface plasmon resonance in a Biacore3000 assay platform as previously published. Subsequent fitting to the binding isotherms by non-linear regression provided the IC50-value.

[5] = biological target: Urokinase-type plasminogen activator receptor (uPAR) (human) (UniProt Q03405)
Chain of Urokinase-type plasminogen activator receptor (uPAR) (human) (Q03405 23-305): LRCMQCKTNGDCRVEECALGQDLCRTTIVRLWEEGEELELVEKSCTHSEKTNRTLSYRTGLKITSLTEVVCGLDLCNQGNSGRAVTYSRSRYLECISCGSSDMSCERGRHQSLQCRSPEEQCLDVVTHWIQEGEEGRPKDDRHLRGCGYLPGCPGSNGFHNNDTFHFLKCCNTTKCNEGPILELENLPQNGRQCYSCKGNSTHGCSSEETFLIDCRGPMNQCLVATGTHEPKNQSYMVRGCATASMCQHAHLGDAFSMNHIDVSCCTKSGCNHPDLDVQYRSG

pIC50 (uPAR)	mean decrease of the max fluorescence signal of the xenograft tumours when 6.7 nmol uPA is injected together with 10 nmol probe, against probe alone [5] [%]	Molecule	Co-localization of probe fluorescence with uPAR immunohistochemistry staining [1]	Intact ICG-AE105 recovered from supernatant (%) Compared to standard ([2]; 0 min incubation)	Intact ICG-AE105 recovered from supernatant (%) Compared to standard ([2]; 1 min incubation) [%]	Intact ICG-AE105 recovered from supernatant (%) Compared to standard ([2]; 1 min incubation, listed as ICG-AE105)	remaining at 1 min, 33 µg/mL ([2]; 1 min incubation, read-out: Intact ICG-AE105 recovered from supernatant (%) Compared to plasma sample at 0 min) [%]	Intact ICG-AE105 recovered from supernatant (%) Compared to plasma sample at 0 min ([2]; 5 min incubation)	Intact ICG-AE105 recovered from supernatant (%) Compared to standard ([2]; 5 min incubation) [%]	Intact ICG-AE105 recovered from supernatant (%) Compared to standard ([2]; 5 min incubation, listed as ICG-AE105)	Intact ICG-AE105 recovered from supernatant (%) Compared to plasma sample at 0 min ([2]; 30 min incubation)	Intact ICG-AE105 recovered from supernatant (%) Compared to standard ([2]; 30 min incubation) [%]	Intact ICG-AE105 recovered from supernatant (%) Compared to standard ([2]; 30 min incubation, listed as ICG-AE105)	Decrease in fluorescence intensity of conjugated probe compared with ICG [3] [fold]	Adverse effects observed in mice (nude NMRI mice)	Uptake in the tumor (in words) [4]	Tumour to background ratio (TBR) ([4]; U87MG s.c. xenograft mice, n = 5 mice (n = 10 tumors), mean)
6.87	–	CC(C)C[C@H](NC(=O)[C@H](Cc1ccc(O)cc1)NC(=O)[C@@H](CCCNC(=N)N)NC(=O)[C@@H](CO)NC(=O)[C@H](Cc1ccccc1)NC(=O)[C@H](CC1CCCCC1)NC(=O)[C@H](CC(=O)O)NC(=O)[C@H](CCC(=O)O)NC(=O)[C@H](CCC(=O)O)NC(=O)CCCCC[N+]1=C(C=CC=CC=CC=C2N(CCCCS(=O)(=O)[O-])c3ccc4ccccc4c3C2(C)C)C(C)(C)c2c1ccc1ccccc21)C(=O)N[C@@H](Cc1c[nH]c2ccccc12)C(=O)N[C@@H](CO)C(=O)O [ICG-Glu-Glu-AE105]	co-localization of the uPAR staining and the fluorescent probe signal was observed	97,2%	92.3	92,3%	95	89,3%	86.7	86,7%	84,1%	81.7	81,7%	2	No adverse effects	high uptake	–
–	–	CC1(C)C(/C=C/C=C/C=C/C=C2\N(CCCCS(=O)(=O)O)c3ccc4ccccc4c3C2(C)C)=[N+](CCCCS(=O)(=O)[O-])c2ccc3ccccc3c21 [ICG, indocyanine green]	–	–	–	–	–	–	–	–	–	–	–	–	No adverse effects	No uptake	1.04±0.04
–	46.8	ICG-Glu-Glu-AE105 (peptide)	–	–	–	–	–	–	–	–	–	–	–	–	–	–	–
